B1: TPR t1 (parent)
chain: GACCAAUCUGCCCUCAGAGCUCGAGAACAUCUUCGGAUGCAGAGGAGGCAGGCUUCGGUGGCGCGAUAGCGCCAACGUCCUCAACCUCCAAUGCAUCCCACCACAUGAUGAUGCCUGAAGAGCCUUGGUUUUUUG

Variants of: B1
Test: polymerase ribozyme fitness, log enrichment relative to wild type (log ratio); higher = more active; in vitro selection for triplet polymerase activity
In short: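 Streptavidin-bead capture of gel-excised extended constructs, followed by RT-PCR, closed a single triplicate in vitro selection round. That round began by annealing PCR-built, transcribed mutant libraries of each subunit of a heterodimeric triplet polymerase ribozyme with a biotinylated primer, the partner subunit and triplets, then incubating them frozen at −7 °C. After Illumina sequencing of inputs and outputs, genotypes needed ≥10 input reads and ≥1 read per output. Fitness is the base-2 logarithm of genotype enrichment over wild-type enrichment, using inverse-variance-weighted replicate averages.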

Row | Variant | polymerase ribozyme fitness (log ratio)
1 | GACCAAUCUGCCCUCAGAGCUCGAGAACAUCUUCGGAUGCAGAGGAGGCAGGCUUCGGUGGCGCGAUAGCGCCAACGUCCUCAACCUCCAAAGCAUCCCACCACAAGAUGAUGACUGAAGAGACUUGGUUUUUUG [U92A U106A C114A C123A] | -5.83
2 | GACCGAUCUGCCCUCAGAGCUCGAGAACAUCUUCGGAUGCAGAGGUGGCAGGCUUUGGUGGCGCGAUAGCGCGAACGUCCUCAACCUCCAAUGCAUCCCACCACAUGAUGAUGCCUGAAGAGCCUUGGUUUUUUG [A5G A46U C56U C73G] | -2.61
3 | GACCAAUCUGCCCUCAGAGCUCGAGAACAUCUUCGAAUGCAGAGGAGGCAGGCUUCGGUGGUGCGAUAGCGCCAACGUCCUCAACCUCCAAUGCAUCCCACCACAUGAUGAUGCCUGAAGAGCCUUGGUUUUUUG [G36A C62U] | -0.332
4 | GACCAAUCUGCCCUCAGAGCUCGAGAACAUCUUCGGAGGCAGAGGAGGCAGGCUUCGGUGGCGCGAUAGCGCCAACGUCCUCAACCUCCAAUGCAUCCCACCACAUGAUGAUGCCUGAAGAGCCUUGGUUUUUUG [U38G] | -0.73
5 | GACCAAUCUGCCCUCAGAGCUCGAGAACAUCUUCGGAUGCAGCGGAGGCAGGCUUCGGUGGCACGAUAGCGCCAACGCCCUCAACCUACAGUGUAUCCCACCACAUGAUGAUGCCUGAAGAGCCUUGGUCUUUUG [A43C G63A U78C C88A A91G C94U U130C] | -4.78
6 | GGCCAAUCUGCCGUCAGAGCUCGAGAACAUCUUCGGAUGCAGAGGAGGCAGGCUUCGGUGGCGCGAUAGCGCCAACGUCCUGAACCUCCAAUGCAUCCCACCACAUGAUGAUGCCUGAAGAGCCUUGGCUUUUUG [A2G C13G C82G U129C] | -1.79
7 | GACCAAUCUGCCCUCAGAGCUCGAGAACAUCUUCGGAUGCAGAGGAGGCAGGCUUCGGUGUCGCGAUAGCGCCAACGUCCUGAACCUCCAAUGCAUCCCCCCACAUGAUGAUUCCUGAAGAGCCUUGGUUUUUUG [G61U C82G A100C G113U] | -5.11
8 | GACCAAUCUGCCCUCAGAGCUCGGGAACAUCUUCGGAUGCAGAGGAGGCAGGCUUCGGUGGUGCGAUAGCGCCAACGUCCACAACCUCCAAUGCAUCCCACCACAUGAUGAUGCCUGAAGAGCCUUGGUUUUUUG [A24G C62U U81A] | -3.04
9 | GACCAAUCUGCCCUCAGAGCUCGAGAACAUCUUCGGAUGCAGAGGAGGCAGGCUUCGGUGGCGAGAUAGCGCCAACGUCCUCAACCUCCAAUGCAUCCCACCACAUGAUGAUGCCUGAAGAGACUUGGUUUUUUG [C64A C123A] | -3.79
10 | GACCAAUCUGGCCUCAGAGCUCGAGAACAUCUUCGGAUGCAGAGGAGGCAGGCUUGAGUGGCGCGAUAGCGCCAACGUCCUCAACCUCCAAUGCACCCCACCACAUGAUGAUUCCUGAAGAGCCUUGGUUUUUUG [C11G C56G G57A U96C G113U] | -3.3
11 | GACCAAUGUGCCCACAGAGCUCGAGAACAUCUUCGGAUGCAGAGGAGGCAGGCUUCAGUGGCGCGAUAGCGCCAACGUCCUCAACCUCCAAUGCAUUCCACCCCAUGAUGAUGCCUGAAGAGCCUUGGUUUUUUG [C8G U14A G57A C97U A103C] | -6.07
12 | GACCAAUCUGUCCUCAGAGCUAGAGAACAUCUUCGGAUGCAGAGGAGGCAGGCUUCGGUGGCGCGAUAGCGCAAACGUCCUCUACCUCCAAUGCAUCCCACCACAUGAUGAUGCCUGAAGAGCCUUGGUUUUUUG [C11U C22A C73A A83U] | -5.9
13 | GACCAAUCUGCCCUCAGAGCUCGAGAACAUCUUCGGAUGCAGAGGAGGCAGGCUUCGGUGGCGCGAUAGCGCCAACGUCGUCAACCUCCAAUGCAUCCCACCACAUGAUGAUGCCUGUAGAGCCUUGGUUUUUUG [C80G A118U] | -5.08
14 | GACCAAUCUGCCCUCAGAGCUCGAGAACAUCUUCGGAUGCAGAGGAGGCAGGCUUCGGUGGCGCGAUAGCGCCAACGUCCUCAACCUCCAAUGCAUCCCACCACAUGAUGAUGCCUCAAGAGCCUUGGUUUUAUG [G117C U133A] | -4.07
15 | GACCAAUCUGCCCUCAGAGCUCGAGAACAUCUUCGGAUGCAGAGGAGGCAGGCUUCGGUGGCGCGAUAGCGACAACGUCCUCAACCUCCAAUGCAUCCCAUCACAUGAUGAUGCCUGAAGAGCAUUGGUUUUUUA [C72A C101U C124A G135A] | 2.37
16 | GACCAAUCUGCCCUCAGAGCUAGAGAAUAUCUUCGGAUGCAGAGGAGGCAGGCUUCGGUGGCGCGAUAGCGCCAACGUCCUCAACCUCCAAUGCAUCCCACCACAUGAUGAUGCCUGAAGAGCCUUGGUUUUUUG [C22A C28U] | -4.42
17 | GACCAAUCUGCACUCAGAGCUCGAGAACAUCUUCGGAUUCAGAGGAGGCAGGCUUCGGUGGCGCGAUAGCGCCAACGUCCUCAACCUCCAAUGCAUCCCACCACAUGAUGAUGCCUAAAGAGCCUUGGUUUUUUG [C12A G39U G117A] | -2.74
18 | GACCAAUCUGCCCUCAGAGCUCGAGAACAUCUUCGGAUGCAGAGGAGGCAGGCUUCGGUGGCGCGAUAGCGUCAACGUCCUCAACCUCCAAUGCAUCCCACCACAUGAUGAUGCCUGAAGAGCUUUGGUUUUUUG [C72U C124U] | 0.818
19 | GACCAAUCUGCCCUCAGAGCUCGAGAACAUCUUCGGAUGCAGAGGAGGCAGGCUUCGGUGGCGCGAUAGCGUCAACGUCCUCAACCUCCAAUGCAUCCCACCACAUGAUGAUGCCGGAAGAGCCUUGGUUUUUUG [C72U U116G] | -2.57
20 | GACCAAUCUGCCCUCAGAGCUCGGGAACAUCUUCGGAUGCAGAGGAGGCAGGCUUCGGUGGCGCGAUAGCGCGAACGUCCUCAACCUCCAAUGCAUCCCACCACAUGAUGAUGCCUGAAAAGCCUUGGUUUUUUG [A24G C73G G120A] | -2.15
21 | GACCAAUCUGCCCUCAGAGCUCGAGAACAUCUUCGGAUGCAGAGGAGGCAGGCUUCGGUGCCGCGAUAGCGCCAACGUCCUCAACCUCCAAUGAAUCCCACCACAUGAUGAUGCCUGAAGAGCCUUGGUUGUUUG [G61C C94A U131G] | -2.91
